From paper PMC5016661 (The Journal of Biological Chemistry, 2016)

Target: the molecule itself
Experiment: cryo-EM structure; FraC (5 uM) incubated with DOPC LUVs at a protein/lipid ratio of 1:160 for 30 min; vitrified; 1,562 particles; oligomer bound to the vesicles (non-lytic, prepore)

B1: fragaceatoxin C (natural protein)
chain: ADVAGAVIDGAGLGFDVLKTVLEALGNVKRKIAVGIDNESGKTWTAMNTYFRSGTSDIVLPHKVAHGKALLYNGQKNRGPVATGVVGVIAYSMSDGNTLAVLFSVPYDYNWYSNWWNVRVYKGQKRADQRMYEELYYHRSPFRGDNGWHSRGLGYGLKSRGFMNSSGHAILEIHVTKA
notes: also called FraC; WT FraC; source: E. coli BL21 (DE3), purified (ion-exchange and size-exclusion chromatography)
  stoichiometry N: 8
